Measurements as given in the RNAGym collection of RNA variant scans (doi:10.1093/nar/gkz1192).

B1: CPEB3 Ribozyme (parent)
chain: UAACAGGGGGCCACAGCAGAAGCGUUCACGUCGCAGCCCCUGUCAGAUUCUGGUGAAUCUGCGAAUUCUGCUGUAUAUCUC

Variants of: B1
Experiment: self-cleavage, relative activity (ratio to wild type); higher = more cleavage; in vitro, sequencing
Procedure, shortened: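 CPEB3 self-cleaving ribozyme mutant libraries were made by rounds of error-prone PCR, barcoded, and transcribed in vitro with T7 RNA polymerase for 5 hours at 37°C. Cleavage occurred during transcription and a 15 min DNase I step before EDTA stop. RNAs were reverse transcribed with template switching and Illumina-sequenced, with DNA sequencing mapping barcodes to variants. Relative activity is the variant's cleaved/total read fraction divided by wild type's (minimum 5 reads), averaged across three batches.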

Question: Which self-cleavage does the source give for UAACAGGGGGCCACAGCAGAGGCGUUCACGUCGCAGCCCCUGUCAGAUUCUGGUGAAUCUGCGAAAUCUGCUGUAUAUCUC [A21G U66A] here?
Answer: Its self-cleavage is 0.42.

Question: Which self-cleavage does the source give for UAACAGGGGGCCACAGCAGAGGCGUUCACGUCGCAGCCCCUGUCAGAUUCUGGUGAAUCUGCGAACUCUGCUGUAUAUCUC [A21G U66C] here?
Answer: Its self-cleavage is 1.05.

Question: Which self-cleavage does the source give for UAACAGGGGGCCACAGCAGAGGCGUUCACGUCGCAGCCCCUGUCAGAUUCUGGUGAAUCUGCGAAGUCUGCUGUAUAUCUC [A21G U66G] here?
Answer: Its self-cleavage is 0.44.

Question: Which self-cleavage does the source give for UAACAGGGGGCCACAGCAGAGGCGUUCACGUCGCAGCCCCUGUCAGAUUCUGGUGAAUCUGCGAAUACUGCUGUAUAUCUC [A21G U67A] here?
Answer: Its self-cleavage is 0.24.

Question: Which self-cleavage does the source give for UAACAGGGGGCCACAGCAGAGGCGUUCACGUCGCAGCCCCUGUCAGAUUCUGGUGAAUCUGCGAAUCCUGCUGUAUAUCUC [A21G U67C] here?
Answer: The self-cleavage was 0.24.

Question: With UAACAGGGGGCCACAGCAGAGGCGUUCACGUCGCAGCCCCUGUCAGAUUCUGGUGAAUCUGCGAAUUCAGCUGUAUAUCUC [A21G U69A] as the variant, how does the self-cleavage read?
Answer: The self-cleavage was 0.27.

Question: For UAACAGGGGGCCACAGCAGAGGCGUUCACGUCGCAGCCCCUGUCAGAUUCUGGUGAAUCUGCGAAUUCCGCUGUAUAUCUC [A21G U69C], which self-cleavage is on record?
Answer: The self-cleavage was 0.27.

Question: Which self-cleavage does the source give for UAACAGGGGGCCACAGCAGAGGCGUUCACGUCGCAGCCCCUGUCAGAUUCUGGUGAAUCUGCGAAUUCGGCUGUAUAUCUC [A21G U69G] here?
Answer: Its self-cleavage is 0.33.

Question: With UAACAGGGGGCCACAGCAGAGGCGUUCACGUCGCAGCCCCUGUCAGAUUCUGGUGAAUCUGCGAAUUCUGCAGUAUAUCUC [A21G U72A] as the variant, how does the self-cleavage read?
Answer: The self-cleavage was 0.44.

Question: For UAACAGGGGGCCACAGCAGAGGCGUUCACGUCGCAGCCCCUGUCAGAUUCUGGUGAAUCUGCGAAUUCUGCCGUAUAUCUC [A21G U72C], which self-cleavage is on record?
Answer: The self-cleavage was 0.65.

Question: With UAACAGGGGGCCACAGCAGAGGCGUUCACGUCGCAGCCCCUGUCAGAUUCUGGUGAAUCUGCGAAUUCUGCGGUAUAUCUC [A21G U72G] as the variant, how does the self-cleavage read?
Answer: The self-cleavage was 0.53.

Question: With UAACAGGGGGCCACAGCAGAGGCGUUCACGUCGCAGCCCCUGUCAGAUUCUGGUGAAUCUGCGAAUUCUGCUGAAUAUCUC [A21G U74A] as the variant, how does the self-cleavage read?
Answer: Its self-cleavage is 1.03.

Question: Which self-cleavage does the source give for UAACAGGGGGCCACAGCAGAGGCGUUCACGUCGCAGCCCCUGUCAGAUUCUGGUGAAUCUGCGAAUUCUGCUGCAUAUCUC [A21G U74C] here?
Answer: Its self-cleavage is 0.96.

Question: Which self-cleavage does the source give for UAACAGGGGGCCACAGCAGAGGCGUUCACGUCGCAGCCCCUGUCAGAUUCUGGUGAAUCUGCGAAUUCUGCUGUAAAUCUC [A21G U76A] here?
Answer: Its self-cleavage is 0.55.

Question: With UAACAGGGGGCCACAGCAGAGGCGUUCACGUCGCAGCCCCUGUCAGAUUCUGGUGAAUCUGCGAAUUCUGCUGUACAUCUC [A21G U76C] as the variant, how does the self-cleavage read?
Answer: The self-cleavage was 0.63.

Question: With UAACAGGGGGCCACAGCAGAGGCGUUCACGUCGCAGCCCCUGUCAGAUUCUGGUGAAUCUGCGAAUUCUGCUGUAGAUCUC [A21G U76G] as the variant, how does the self-cleavage read?
Answer: The self-cleavage was 0.66.

Question: With UAACAGGGGGCCACAGCAGAGGCGUUCACGUCGCAGCCCCUGUCAGAUUCUGGUGAAUCUGCGAAUUCUGCUGUAUAACUC [A21G U78A] as the variant, how does the self-cleavage read?
Answer: The self-cleavage was 0.53.

Question: For UAACAGGGGGCCACAGCAGAGGCGUUCACGUCGCAGCCCCUGUCAGAUUCUGGUGAAUCUGCGAAUUCUGCUGUAUACCUC [A21G U78C], which self-cleavage is on record?
Answer: The self-cleavage was 0.58.

Question: Which self-cleavage does the source give for UAACAGGGGGCCACAGCAGAGGCGUUCACGUCGCAGCCCCUGUCAGAUUCUGGUGAAUCUGCGAAUUCUGCUGUAUAUCAC [A21G U80A] here?
Answer: Its self-cleavage is 0.72.

Question: With UAACAGGGGGCCACAGCAGAGGCGUUCACGUCGCAGCCCCUGUCAGAUUCUGGUGAAUCUGCGAAUUCUGCUGUAUAUCCC [A21G U80C] as the variant, how does the self-cleavage read?
Answer: Its self-cleavage is 0.74.

Question: Which self-cleavage does the source give for UAACAGGGGGCCACAGCAGAGGCGUUCACGUCGCAGCCCCUGUCAGAUUCUGGUGAAUCUGCGAAUUCUGCUGUAUAUCGC [A21G U80G] here?
Answer: Its self-cleavage is 0.76.

Question: With UAACAGGGGGCCACAGCAGAUGCGUUCACGUCGCAGCCCCUGUCAGAUUCUGGUGAAUCUGCGAAUUCUGCUGUAUAUCUC [A21U] as the variant, how does the self-cleavage read?
Answer: The self-cleavage was 0.37.

Question: With UAACAGGGGGCCACAGCAGAUGCGUUCCCGUCGCAGCCCCUGUCAGAUUCUGGUGAAUCUGCGAAUUCUGCUGUAUAUCUC [A21U A28C] as the variant, how does the self-cleavage read?
Answer: The self-cleavage was 0.15.

Question: With UAACAGGGGGCCACAGCAGAUGCGUUCGCGUCGCAGCCCCUGUCAGAUUCUGGUGAAUCUGCGAAUUCUGCUGUAUAUCUC [A21U A28G] as the variant, how does the self-cleavage read?
Answer: The self-cleavage was 0.22.

Question: With UAACAGGGGGCCACAGCAGAUGCGUUCUCGUCGCAGCCCCUGUCAGAUUCUGGUGAAUCUGCGAAUUCUGCUGUAUAUCUC [A21U A28U] as the variant, how does the self-cleavage read?
Answer: Its self-cleavage is 0.23.

Question: With UAACAGGGGGCCACAGCAGAUGCGUUCACGUCGCGGCCCCUGUCAGAUUCUGGUGAAUCUGCGAAUUCUGCUGUAUAUCUC [A21U A35G] as the variant, how does the self-cleavage read?
Answer: Its self-cleavage is 1.03.

Question: With UAACAGGGGGCCACAGCAGAUGCGUUCACGUCGCUGCCCCUGUCAGAUUCUGGUGAAUCUGCGAAUUCUGCUGUAUAUCUC [A21U A35U] as the variant, how does the self-cleavage read?
Answer: The self-cleavage was 0.28.

Question: With UAACAGGGGGCCACAGCAGAUGCGUUCACGUCGCAGCCCCUGUCCGAUUCUGGUGAAUCUGCGAAUUCUGCUGUAUAUCUC [A21U A45C] as the variant, how does the self-cleavage read?
Answer: The self-cleavage was 0.1.

Question: For UAACAGGGGGCCACAGCAGAUGCGUUCACGUCGCAGCCCCUGUCGGAUUCUGGUGAAUCUGCGAAUUCUGCUGUAUAUCUC [A21U A45G], which self-cleavage is on record?
Answer: Its self-cleavage is 0.29.

Question: With UAACAGGGGGCCACAGCAGAUGCGUUCACGUCGCAGCCCCUGUCUGAUUCUGGUGAAUCUGCGAAUUCUGCUGUAUAUCUC [A21U A45U] as the variant, how does the self-cleavage read?
Answer: The self-cleavage was 0.17.

Question: For UAACAGGGGGCCACAGCAGAUGCGUUCACGUCGCAGCCCCUGUCAGGUUCUGGUGAAUCUGCGAAUUCUGCUGUAUAUCUC [A21U A47G], which self-cleavage is on record?
Answer: The self-cleavage was 0.38.

Question: With UAACAGGGGGCCACAGCAGAUGCGUUCACGUCGCAGCCCCUGUCAGUUUCUGGUGAAUCUGCGAAUUCUGCUGUAUAUCUC [A21U A47U] as the variant, how does the self-cleavage read?
Answer: Its self-cleavage is 0.1.

Question: For UAACAGGGGGCCACAGCAGAUGCGUUCACGUCGCAGCCCCUGUCAGAUUCUGGUGCAUCUGCGAAUUCUGCUGUAUAUCUC [A21U A56C], which self-cleavage is on record?
Answer: Its self-cleavage is 0.18.

Question: Which self-cleavage does the source give for UAACAGGGGGCCACAGCAGAUGCGUUCACGUCGCAGCCCCUGUCAGAUUCUGGUGGAUCUGCGAAUUCUGCUGUAUAUCUC [A21U A56G] here?
Answer: The self-cleavage was 0.25.
